Reference: US20160000054A1, “HUMAN-DERIVED MUTANTS OF THE dSOD1 GENE IN DROSOPHILA AND METHODS OF MAKING AND USING” (priority 2014, published 2016)

Experiments:
Assay type in all cases: in vivo, Drosophila melanogaster
[1] = tested on: dSod1-G85R and dSod1-H71Y mutant larvae; assay: Larval locomotor (motility) defect in dSod1 mutant larvae; conditions: expression of Gbb
Text: (§1) The genetically accurate model of ALS disclosed herein, can be used to elucidate not only the behavioral and electrophysiological changes, but also the cellular and molecular basis of disease progression. ALS-associated loss in motor neuron function and subsequent cell death has been attributed to defects in a number of processes from protein aggregation, increases is axonal membrane excitability, mitochondrial dysfunction, to changes in RNA metabolism and general metabolic homeostasis (49-55). This model system was used to explore the involvement of these processes in disease progression. […] The time of death varied between the different dSod1 mutations with <0.1% dSod1-G85R adults emerging from the pupal case (a feat requiring considerable muscle strength) to 33% emergence by the less severe dSod1-H71Y followed by death within 7-10 days of adulthood. […] Characterization of this progressive loss in motor function in detail during can be performed using immunohistochemical markers of muscle, as well as Drosophila lines expressing GFP-tagged muscle proteins (Mhc-mCD8-GFP) that allow visualization of muscles in living animals. Examination of the innervation of the muscles in controls and mutants is done by concomitant labeling of the MNs (CD8-RFP driven in MNs). […]

G85R/H71Y = assay: Adult eclosion (emergence from the pupal case); conditions: G85R/H71Y flies; expression of Gbb; 15% without Gbb
Text: as §1

dSod1-G85R mutants = assay: Spontaneous motor neuron activity recorded from larval muscles with motor circuit intact; conditions: expression of Gbb
Text: Consistent with the reduced motility observed in dSod1-G85R late 3rd instar larvae, there was a concordant reduction in the spontaneous activity of MNs when recorded from larval muscles in preparations with the motor circuit intact (brain and ventral nerve cord (VNC) remain attached to the body wall muscles). […] These analyses, coupled with studies on muscle structure can provide a well-defined depiction of disease progression. While ALS paralysis results from a dramatic degeneration of MNs and atrophied muscles, it is unclear when and where the decline in function originates. It could begin in a specific set of cells or the loss of function could be a systemic effect. This can be addressed using the Drosophila model system disclosed herein. For example, directed expression of channel-rhodopsin (ChR2) to specific cells or neurons can be done, followed by excitation of those cells with a flash of light and recording of the response in the circuit output of a particular larval muscle. Driving UAS-ChR2 within different neurons (OK371Gal4 in motorneurons, ChaGal4 in cholinergic neurons, specific neural Gal4 lines from Janeila Farm collection) (55) can be done to address the integrity of the neural circuit and interrogate the function of individual neurons.
Gbb, the Drosophila orthologue of vertebrate BMPs 5, 6, 7, acted as a retrograde signal at the NMJ (56). […]

B1: Gbb: the Drosophila orthologue of vertebrate BMPs 5, 6, 7; expressed genetically in the flies, not dosed (protein, UniProt P27091 336-455, looked up)
Protein 60A: SVSPNNVPLLEPMESTRSCQMQTLYIDFKDLGWHDWIIAPEGYGAFYCSGECNFPLNAHMNATNHAIVQTLVHLLEPKKVPKPCCAPTRLGALPVLYHLNDENVNLKKYRNMIVKSCGCH
- locomotor defect ([1]; dSod1-G85R mutant larvae): rescued
- locomotor defect ([1]; dSod1-H71Y mutant larvae): rescued
- eclosion (G85R/H71Y): 45%
- spontaneous MN activity (dSod1-G85R mutants): restored normal spontaneous MN activity
